Earlier results, collected in article PMC10558290.
Read-outs that look alike come from different tables or passages of the source.

Key:
[1] = biological target: G-actin (Saccharomyces cerevisiae) (UniProt P60010)
[2] = biological target: G-actin (Saccharomyces cerevisiae) (UniProt P60010); remark: listed apart in the source

Profilin Pfy1, sequence (P07274 whole entry): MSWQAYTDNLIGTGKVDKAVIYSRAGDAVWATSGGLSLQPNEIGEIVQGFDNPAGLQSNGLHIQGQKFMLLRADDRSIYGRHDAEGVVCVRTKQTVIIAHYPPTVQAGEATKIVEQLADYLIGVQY
Srv2, sequence (P17555 whole entry): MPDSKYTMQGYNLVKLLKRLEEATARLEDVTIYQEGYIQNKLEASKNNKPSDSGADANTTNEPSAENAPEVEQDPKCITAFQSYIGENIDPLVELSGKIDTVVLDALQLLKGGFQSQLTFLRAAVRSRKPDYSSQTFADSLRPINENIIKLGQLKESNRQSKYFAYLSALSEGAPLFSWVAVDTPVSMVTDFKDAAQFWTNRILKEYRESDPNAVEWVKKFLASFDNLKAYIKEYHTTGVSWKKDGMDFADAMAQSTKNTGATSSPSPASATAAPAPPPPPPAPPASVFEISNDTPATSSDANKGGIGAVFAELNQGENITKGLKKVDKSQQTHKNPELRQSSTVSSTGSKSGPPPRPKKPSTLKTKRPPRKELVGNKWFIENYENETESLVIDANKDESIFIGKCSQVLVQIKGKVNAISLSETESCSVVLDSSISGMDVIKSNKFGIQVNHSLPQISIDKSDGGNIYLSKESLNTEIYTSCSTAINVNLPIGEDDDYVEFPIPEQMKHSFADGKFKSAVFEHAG

Kd [1] [nM] | Kd [2] [nM] | Substance
18 | – | Srv2 (from UniProt P17555)
– | 100 | Profilin Pfy1 (from UniProt P07274)
